# Data as given in patent US20260183393A1, “IMMUNOSUPPRESSANT-RESISTANT MODIFIED ALLOGENEIC MODIFIED IMMUNE CELLS AND METHODS FOR USE THEREOF” (Beam Therapeutics Inc., priority 2023, published 2026).
# “Also recorded” adds a separate entry of the source.
# B1: TSBT×1538: guide polynucleotide targeting FKBP1A, SEQ ID NO: 501 (nucleic acid)
# guide: CTCACCGTCTCCTGGGGAGAGTTTTAGAGCTAGAAATAGCAAGTTAAAATAAGGCTAGTCCGTTATCAACTTGAAAAAGTGGCACCGAGTCGGTGCTTTT
# modifications: chemistry not given here
# Assays:
# [1] = tested on: FKBP1A polynucleotide; assay: Base editing of FKBP1A in primary human T cells, next-generation sequencing; assay type: cell-based; details: ABE8.20m mRNA and sgRNA electroporated into activated primary human T cells; NGS
# Text: FIG. 3 provides a bar graph showing maximum A to G and C to T base editing within an FKBP1A polynucleotide achieved using base editor systems containing one of the guide polynucleotides indicated along the x-axis (see Table 1 for nucleotide sequences) and either an adenosine deaminase base editor (ABE) or a cytidine deaminase base editor (CBE), as indicated. The ABE was ABE8.20m and the CBE was rBE4. Primary human T cells were thawed and activated in vitro using an anti-CD3/CD28/CD2 reagent. On day 2 following contacting with the reagent, the T cells were washed and resuspended in P3 Buffer (Lonza) and plated in 96-well electroporation plates containing 2 μg ABE8.20m or rBE4 (CBE) and 2 μg of the indicated guide polynucleotide targeting the FKBP1A (FKBP prolyl isomerase 1A) polynucleotide. Plates were electroporated using a DH-102 setting on a Lonza Nucleofector™ 96-well plate unit. The electroporated cells were incubated for 3 days. […]
# Healthy donor adult human leukopaks were commercially obtained from HemaCare (Charles River). […] Two-days post-activation, T cells were counted, washed with sterile PBS (Gibco) and resuspended in P3 buffer (Lonza) at 10^7 cells mL^−1. […]
# [2] = tested on: FKBP1A protein; assay: Western blot of FKBP1A protein in edited T cells; assay type: cell-based, human; details: T cells edited with ABE8.20m and TSBT×1538 sgRNA
# Description: Primary human T cells were activated with anti-CD3/CD28/CD2 reagent. On day 2 following contacting with the reagent, the T cells were contacted with the TSBT×1538 sgRNA and ABE8.20m and subsequently incubated for approximately 5 days. Unedited cells were used as a negative control. Following the approximately 5-day incubation, the cells were harvested and cell-associated protein was extracted to be evaluated in the Western blot analysis. Protein samples from the edited and unedited cells were contacted with a rabbit anti-FKBP1A or mouse anti-GAPDH (control used to normalize protein concentrations) antibodies, followed by staining with secondary anti-rabbit (HRP) and anti-mouse (NIR) antibodies, respectively. Protein was analyzed using the Jess automated Western blot analysis device available from ProteinSimple.
# [3] = tested on: 19CAR-T cells; assay: CAR-T cell proliferation assay; assay type: cell-based, human; details: 100 nM rapamycin
# Text: Primary human T cells were activated using an anti-CD3/CD28/CD2 reagent. Two-days after being contacted with the reagent, the T cells were edited using a base editor system containing the guide polynucleotide TSBT×1538 and the base editor ABE8.20m using electroporation, as described above. Following electroporation, both the T cells were transduced with a lentiviral vector encoding an anti-CD19 CAR (19CAR) and allowed to expand in culture for approximately 7 days before being cryopreserved for later analysis. Unedited anti-CD19 CAR-T cells were prepared as a negative control. The 19CAR-T cells were then thawed from cryopreservation and rested overnight before being stimulated using dynabeads coated with recombinant human CD19 protein-coated at a bead-to-cell ratio of 1:1. The T cells were cultured in the presence of 100 nM of the immunosuppressant rapamycin or dimethylsulfoxide (DMSO) as a control for 6 days. The total number of T cells were enumerated using a NucleoCounter NC-200™ automated cell counter.
# Primary human T cells were activated using an anti-CD3/CD28/CD2 reagent. Two days after being contacted with the reagent, the T cells were edited using a base editor system containing the guide polynucleotide TSBT×1538 and the base editor ABE8.20m using the electroporation protocol described above. Both edited and unedited T cells were transduced with a lentiviral vector encoding an anti-CD19 CAR (19CAR) and allowed to expand in culture for approximately 7 days before being cryopreserved for later analysis. Unedited 19CAR-T cells were used as a control. For analysis, the 19CAR-T cells were thawed and rested for 72 hours before labeling using a CellTrace™ Far Red (CTFR) dye. After CTFR labeling, the 19CAR-T cells were stimulated using an Immunocult™ Human CD3/CD28/CD2 universal T cell activator in the presence of 100 nM of the immunosuppressant agent rapamycin or in the presence of DMSO (control) and allowed to incubate for an additional 3 days. Following the three-day incubation, the T cells were analyzed using flow cytometry to measure dilution of CTFR dye as an indicator of cell proliferation.
# The following day, T cells were washed, counted and 1×10^4 cells were seeded in triplicate into a 96-well flat bottom plate alone or with 1×10^4 JeKo-1.GFP^+ tumor cells. […] On day 7, samples were analyzed by flow cytometry and 19CAR-T cells were enumerated using CountBright Counting Beads (Thermo Fisher Scientific) following the manufacturer's protocol.
molecule,measurement,setting,value
B1,mean on-target genomic editing efficiency,[1],93.7%
same,FKBP1A protein expression,[2],knock-out of FKBP1A protein expression; also recorded: reduced protein expression
same,cell proliferation in response to a universal T cell activator,"[3]; 19CAR-T cells edited with ABE8.20m and the guide, 3 days, CTFR dilution",improved cell proliferation
same,proliferation in the presence of rapamycin,"[3]; anti-CD19 CAR-T cells edited with ABE8.20m and the guide, CD19-coated dynabeads 1:1, 6 days",improved proliferation
